Assay in all cases: competitive phage ELISA, soluble IGFBP-1 vs coated IGFBP-1
(In general: An ELISA detects its analyte on a solid surface through an enzyme-linked reagent.)

The target in experiment [1] is T1, IGF-I S1A (G1S-A70V background) displayed on phage (human; bacteriophage M13).
T1 construct: range 249-406; the result is Ala 1

The target in experiment [2] is T2, IGF-I F16A (G1S-A70V background) displayed on phage (human; bacteriophage M13).
T2 construct: not shown: M13 gene III fragment (residues 249-406, display carrier) and the IGF-g3 junction
T2 chain: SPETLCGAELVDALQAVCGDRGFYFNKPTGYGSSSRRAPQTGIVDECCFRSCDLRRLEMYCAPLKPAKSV

In experiment [3] the target is T3, IGF-I M59A (G1S-A70V background) displayed on phage (human; bacteriophage M13).
T3 construct: not shown: M13 gene III fragment (residues 249-406), the display partner, and its junction to IGF-I
T3 chain: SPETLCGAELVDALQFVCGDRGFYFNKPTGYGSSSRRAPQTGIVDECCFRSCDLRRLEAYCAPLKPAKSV

Experiment [4] concerns the target T4, IGF-I P28A (G1S-A70V background) displayed on phage (human; bacteriophage M13).
T4 construct: not shown: Display carrier: M13 gene III protein fragment (residues 249-406) and the junction to it
T4 chain: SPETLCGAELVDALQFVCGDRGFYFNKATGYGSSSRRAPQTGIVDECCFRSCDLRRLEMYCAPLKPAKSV

The target of experiment [5] is T5, IGF-I S33A (G1S-A70V background) displayed on phage (human; bacteriophage M13).
T5 construct: not shown: Display carrier: M13 gene III protein fragment (residues 249-406) and the junction to it
T5 chain: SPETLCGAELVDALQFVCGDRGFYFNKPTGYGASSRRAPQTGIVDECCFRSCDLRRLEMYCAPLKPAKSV

For experiment [6], the target named is T6, IGF-I E58A (G1S-A70V background) displayed on phage (human; bacteriophage M13).
T6 construct: not shown: M13 gene III fragment (residues 249-406), the display partner, and its junction to IGF-I
T6 chain: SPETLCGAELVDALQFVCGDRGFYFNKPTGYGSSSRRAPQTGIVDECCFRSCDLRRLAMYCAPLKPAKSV

In experiment [7] the target is T7, IGF-I G7A (G1S-A70V background) displayed on phage (human; bacteriophage M13).
T7 construct: not shown: M13 gene III fragment (residues 249-406, display carrier) and the IGF-g3 junction
T7 chain: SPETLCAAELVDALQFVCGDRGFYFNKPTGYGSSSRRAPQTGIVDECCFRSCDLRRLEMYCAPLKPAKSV

Experiment [8] has as its target T8, IGF-I R50A (G1S-A70V background) displayed on phage (human; bacteriophage M13).
T8 construct: not shown: Display carrier: M13 gene III protein fragment (residues 249-406) and the junction to it
T8 chain: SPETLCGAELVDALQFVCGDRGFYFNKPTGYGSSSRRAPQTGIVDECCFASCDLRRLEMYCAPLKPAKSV

Experiment [9] addresses T9, IGF-I P2A (G1S-A70V background) displayed on phage (human; bacteriophage M13).
T9 construct: range 249-406

The target in experiment [10] is T10, IGF-I P63A (G1S-A70V background) displayed on phage (human; bacteriophage M13).
T10 construct: not shown: M13 gene III fragment (residues 249-406), the display partner, and its junction to IGF-I
T10 chain: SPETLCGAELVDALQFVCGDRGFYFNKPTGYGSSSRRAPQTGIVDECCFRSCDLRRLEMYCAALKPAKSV

Experiment [11] concerns the target T11, IGF-I V70A (single mutant of G1S-A70V) displayed on phage (human; bacteriophage M13).
T11 construct: not shown: Display carrier: M13 gene III protein fragment (residues 249-406) and its junction to residue 70

In experiment [12] the target is T12, IGF-I E9A (G1S-A70V background) displayed on phage (human; bacteriophage M13).
T12 construct: not shown: M13 gene III fragment (residues 249-406, display carrier) and the IGF-g3 junction
T12 chain: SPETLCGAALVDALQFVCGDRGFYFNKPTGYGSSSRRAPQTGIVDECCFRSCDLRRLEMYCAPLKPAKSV

The target in experiment [13] is T13, IGF-I S69A (G1S-A70V background) displayed on phage (human; bacteriophage M13).
T13 construct: not shown: Display carrier: M13 gene III protein fragment (residues 249-406) and its junction to Val70

Experiment [14] deals with T14, IGF-I D53A (G1S-A70V background) displayed on phage (human; bacteriophage M13).
T14 construct: not shown: Display carrier: M13 gene III protein fragment (residues 249-406) and the junction to it
T14 chain: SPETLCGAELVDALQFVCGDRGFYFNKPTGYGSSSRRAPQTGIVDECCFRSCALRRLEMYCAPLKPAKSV

For experiment [15], the target named is T15, IGF-I L10A (G1S-A70V background) displayed on phage (human; bacteriophage M13).
T15 construct: not shown: M13 gene III fragment (residues 249-406, display carrier) and the IGF-g3 junction
T15 chain: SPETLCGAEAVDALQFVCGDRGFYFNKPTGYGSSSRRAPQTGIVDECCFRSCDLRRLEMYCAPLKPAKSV

Experiment [16] has as its target T16, IGF-I S51A (G1S-A70V background) displayed on phage (human; bacteriophage M13).
T16 construct: not shown: Display carrier: M13 gene III protein fragment (residues 249-406) and the junction to it
T16 chain: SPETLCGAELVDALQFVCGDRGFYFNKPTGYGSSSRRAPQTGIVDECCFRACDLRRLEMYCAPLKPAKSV

Experiment [17] concerns the target T17, IGF-I G32A (G1S-A70V background) displayed on phage (human; bacteriophage M13).
T17 construct: not shown: Display carrier: M13 gene III protein fragment (residues 249-406) and the junction to it
T17 chain: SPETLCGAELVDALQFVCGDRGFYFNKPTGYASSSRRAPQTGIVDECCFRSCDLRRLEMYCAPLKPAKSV

Experiment [18] concerns the target T18, IGF-I K65A (G1S-A70V background) displayed on phage (human; bacteriophage M13).
T18 construct: not shown: M13 gene III fragment (residues 249-406), the display partner, and its junction to IGF-I
T18 chain: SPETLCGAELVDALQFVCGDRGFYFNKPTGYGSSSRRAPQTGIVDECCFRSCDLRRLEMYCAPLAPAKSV

B1: human IGFBP-1 (other, UniProt P08833 26-259, looked up)
chain: APWQCAPCSAEKLALCPPVSASCSEVTRSAGCGCCPMCALPLGAACGVATARCARGLSCRALPGEQQPLHALTRGQGACVQESDASAPHAAEAGSPESPESTEITEEELLDNFHLMAPSEEDHSILWDAISTYDGSKALHVTNIKKWKEPCRIELYRVVESLAKAQETSGEEISKFYLPNCNKNGFYHSRQCETSMDGEAGLCWCVYPWNGKRIPGSPEIRGDPNCQIYFNVQN
notes: Secreted recombinant protein
Regarding B1, the “relative IC50 (IC50mut/IC50 G1S-A70V)” value in [1] was determined as 0.6 fold; in experiment [2] it was 7 fold; in [3], 1.6 fold; in experiment [4], 1.1 fold; in experiment [5] it was 1.1 fold; in experiment [6] it was 1.5 fold. Moreover, the “relative IC50 (IC50mut/IC50 G1S-A70V)” value was greater than 100 fold in experiment [7]; 2 fold in experiment [8]; 1.3 fold in experiment [9]; greater than 100 fold in experiment [10]; 2.3 fold in [11]; 1 fold in experiment [12]. Moreover, the “relative IC50 (IC50mut/IC50 G1S-A70V)” value is 1.6 fold in experiment [13]; 1.9 fold in experiment [14]; 37.9 fold in experiment [15]; 1.6 fold in [16]; 1.3 fold in experiment [17]; 1.5 fold in experiment [18].
